{"source": "paper PMC4158420", "about": "“Crenactin from Pyrobaculum calidifontis is closely related to actin in structure and forms steep helical filaments” (Febs Letters, 2014)", "target": "the molecule itself", "assay": "crystal structure; vapour diffusion, crenactin around 2-5 mg/ml, 100 mM phosphate/citrate pH 4.2, 200 mM lithium sulfate, 20% PEG 1000; space group P41212; 3.2 Å; ADP bound", "data": [{"protein": "Pyrobaculum calidifontis crenactin (natural protein, UniProt A3MWN5 1-432, looked up, crenactin, Pyrobaculum calidifontis, NCBI YP_001056518.1, residues 1-432; full-length protein with no residues added or removed after SUMO cleavage; Gene codon-optimised for E. coli, cloned into pOPINS (HIS6-SUMO-POI); the crystal holds 2 monomers per asymmetric unit, packing as a continuous filament; also called Pc crenactin; source: E. coli BL21(AI), purified (HisTrap, SUMO protease SENP1 …)) MGVISDAYRLKYTFGVDFGTSYVKYGPITLNEPKMVQTRGLFLRDLPESVKMRIPPDVLARGLVVGDEEVRKYLSSVRDVQRNLKYPLKDGVARRDDEEAWRVLKELARYTLAQFPVSDPEFAGWLVAVALSALAPDYMYKAIFDIYDELASEFKIYAVTILPQPLAVAIAENAVNCVIVEGGHGNIQVAPISFALIREGLVALNRGGAEANAITREILKDIGYSDIAREEYAVEVVKRAVGLVPRRLKEAIRAAKSDPDRFVTKVRLSPVVEVEIPREYAWTRFLIGEIVFDPNHEEIKSYIEQSRLRIENAVIGDVTLYGEMDVASAIITSLRNVSVEIQERVASQIILSGGAFSWRVPPGMEDVAADSVTRVKIALEEKSPALASKVEVRLVSEPQYSVWRGAVIYGYALPLSLEWSDTTREGWRFPRR", "values": [{"measurement": "binding result", "result": "binds"}]}]}
